Assay results from article PMC9482650, “Quantitative fragmentomics allow affinity mapping of interactomes” (Nature Communications, 2022).
Each block holds one binder with its values, some of them ahead of it.

What was measured:
Assay in all cases: holdup assay
Parameters in all cases: key: below the threshold = too weak to quantify, mostly under pKd 3.1 to 4
NHERF4_2, Q86UT5 = target: NHERF4_2, Q86UT5
LIMK2, P53671 = target: LIMK2, P53671
PDZD7_3, Q9H5P4 = target: T1, PDZD7_3, Q9H5P4
T1 sequence (Q9H5P4 857-944, limits assumed, looked up): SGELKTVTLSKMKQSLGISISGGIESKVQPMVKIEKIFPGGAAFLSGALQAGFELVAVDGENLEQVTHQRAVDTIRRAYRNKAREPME

GRIP2_6, Q9C0E4 = target: GRIP2_6, Q9C0E4
NHERF3_3, Q5T2W1 = target: T2, NHERF3_3, Q5T2W1
T2 sequence (Q5T2W1 238-333, limits assumed, looked up): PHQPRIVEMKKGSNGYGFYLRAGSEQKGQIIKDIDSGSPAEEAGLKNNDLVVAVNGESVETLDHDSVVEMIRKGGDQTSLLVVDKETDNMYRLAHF

LAP2, Q96RT1 = target: LAP2, Q96RT1
LNX2_3, Q8N448 = target: T3, LNX2_3, Q8N448
T3 sequence (Q8N448 463-564, limits assumed, looked up): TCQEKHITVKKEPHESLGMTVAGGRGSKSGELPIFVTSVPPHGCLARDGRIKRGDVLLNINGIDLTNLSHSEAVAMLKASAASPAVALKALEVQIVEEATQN

DLG4_1, P78352 = target: DLG4_1, P78352
DLG1_3, Q12959 = target: DLG1_3, Q12959
CASK, O14936 = target: CASK, O14936
APBA1_2, Q02410 = target: T4, APBA1_2, Q02410
T4 sequence (Q02410 742-832, limits assumed, looked up): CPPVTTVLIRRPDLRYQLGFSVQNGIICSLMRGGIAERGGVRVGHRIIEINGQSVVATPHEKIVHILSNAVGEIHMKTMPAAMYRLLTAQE

GRIP2_3, Q9C0E4 = target: GRIP2_3, Q9C0E4
DLG3_3, Q92796 = target: T5, DLG3_3, Q92796
T5 sequence (Q92796 374-475, limits assumed, looked up): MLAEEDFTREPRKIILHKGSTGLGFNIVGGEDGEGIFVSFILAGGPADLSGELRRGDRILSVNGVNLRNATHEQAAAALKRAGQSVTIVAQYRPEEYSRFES

LNX1_1, Q8TBB1 = target: LNX1_1, Q8TBB1
RHPN1, Q8TCX5 = target: T6, RHPN1, Q8TCX5
T6 sequence (Q8TCX5 508-602, limits assumed, looked up): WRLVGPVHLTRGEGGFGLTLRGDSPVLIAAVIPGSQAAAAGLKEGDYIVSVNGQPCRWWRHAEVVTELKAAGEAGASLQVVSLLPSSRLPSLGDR

Inadl_4, Q8NI35 = target: Inadl_4, Q8NI35
GOPC, Q9HD26 = target: GOPC, Q9HD26
TJP3_3, O95049 = target: T7, TJP3_3, O95049
T7 sequence (O95049 375-456, limits assumed, looked up): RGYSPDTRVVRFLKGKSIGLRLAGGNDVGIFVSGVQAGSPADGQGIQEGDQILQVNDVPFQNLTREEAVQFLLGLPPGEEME

LRRC7, Q96NW7 = target: T8, LRRC7, Q96NW7
T8 sequence (Q96NW7 1440-1537, limits assumed, looked up): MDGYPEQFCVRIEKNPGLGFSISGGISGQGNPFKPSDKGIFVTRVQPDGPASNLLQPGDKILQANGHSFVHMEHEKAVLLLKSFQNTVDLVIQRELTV

FRMPD2_3, Q68DX3 = target: FRMPD2_3, Q68DX3
APBA3_1, O96018 = target: T9, APBA3_1, O96018
T9 sequence (O96018 389-490, limits assumed, looked up): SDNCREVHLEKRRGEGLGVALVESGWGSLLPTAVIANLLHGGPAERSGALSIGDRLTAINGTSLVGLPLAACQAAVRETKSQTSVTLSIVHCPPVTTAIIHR

SHANK1, Q9Y566 = target: T10, SHANK1, Q9Y566
T10 sequence (Q9Y566 658-767, limits assumed, looked up): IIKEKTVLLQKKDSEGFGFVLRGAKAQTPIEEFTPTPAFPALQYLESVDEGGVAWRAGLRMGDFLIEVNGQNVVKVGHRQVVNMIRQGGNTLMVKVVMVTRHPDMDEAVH

Inadl_8, Q8NI35 = target: Inadl_8, Q8NI35
NHERF3_1, Q5T2W1 = target: T11, NHERF3_1, Q5T2W1
T11 sequence (Q5T2W1 4-100, limits assumed, looked up): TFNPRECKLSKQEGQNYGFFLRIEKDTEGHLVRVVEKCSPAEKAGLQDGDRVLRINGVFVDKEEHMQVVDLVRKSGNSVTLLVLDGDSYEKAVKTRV

TJP2_1, Q9UDY2 = target: TJP2_1, Q9UDY2
FRMPD3, Q5JV73 = target: FRMPD3, Q5JV73
NHERF2_2, Q15599 = target: NHERF2_2, Q15599
[1] = plain residues with an end cap or a label only (N-terminal biotin on a linker: gsgsgs; C-terminal amide)
[2] = plain residues with an end cap or a label only (N-terminal biotin on a linker: ttds)
[3] = plain residues with an end cap or a label only (N-terminal biotin on a linker: ahx)

Sequence of CASK, O14936 (O14936 487-570): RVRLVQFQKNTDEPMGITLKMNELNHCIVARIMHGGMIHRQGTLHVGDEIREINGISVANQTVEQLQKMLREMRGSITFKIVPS
Sequence of LAP2, Q96RT1 (Q96RT1 other isoform, or with tags, fused parts or gaps): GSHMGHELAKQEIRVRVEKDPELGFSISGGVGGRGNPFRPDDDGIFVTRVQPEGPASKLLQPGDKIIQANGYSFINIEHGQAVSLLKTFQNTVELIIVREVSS
Sequence of FRMPD3, Q5JV73 (Q5JV73 12-100): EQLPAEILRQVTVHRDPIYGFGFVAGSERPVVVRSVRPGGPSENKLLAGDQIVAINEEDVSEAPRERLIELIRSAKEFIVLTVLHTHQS
Sequence of NHERF4_2, Q86UT5 (Q86UT5 220-308): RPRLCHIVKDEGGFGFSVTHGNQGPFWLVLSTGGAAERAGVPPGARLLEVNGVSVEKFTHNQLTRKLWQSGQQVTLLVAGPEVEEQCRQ
Sequence of NHERF2_2, Q15599 (Q15599 142-238): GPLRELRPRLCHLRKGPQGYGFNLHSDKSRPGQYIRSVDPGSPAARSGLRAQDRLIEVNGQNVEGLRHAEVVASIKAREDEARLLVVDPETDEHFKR
Sequence of FRMPD2_3, Q68DX3 (Q68DX3 1073-1166): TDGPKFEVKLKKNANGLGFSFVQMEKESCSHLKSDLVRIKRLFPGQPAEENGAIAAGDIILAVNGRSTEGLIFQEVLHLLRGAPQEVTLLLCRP
Sequence of GRIP2_6, Q9C0E4 (Q9C0E4 648-740): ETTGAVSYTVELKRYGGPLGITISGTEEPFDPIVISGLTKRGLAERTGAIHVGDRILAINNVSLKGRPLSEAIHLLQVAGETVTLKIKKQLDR
Sequence of TJP2_1, Q9UDY2 (Q9UDY2 24-128): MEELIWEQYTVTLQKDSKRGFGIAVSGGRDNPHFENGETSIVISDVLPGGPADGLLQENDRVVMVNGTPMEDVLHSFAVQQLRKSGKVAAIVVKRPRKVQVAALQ
Sequence of DLG1_3, Q12959 (Q12959 457-571): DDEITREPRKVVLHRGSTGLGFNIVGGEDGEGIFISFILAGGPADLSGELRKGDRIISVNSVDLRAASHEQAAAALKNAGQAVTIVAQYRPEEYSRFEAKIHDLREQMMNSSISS
Sequence of LNX1_1, Q8TBB1 (Q8TBB1 261-371): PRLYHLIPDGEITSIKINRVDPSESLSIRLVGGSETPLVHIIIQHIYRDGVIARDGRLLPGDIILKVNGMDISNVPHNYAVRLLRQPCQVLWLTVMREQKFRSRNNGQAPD
Sequence of Inadl_4, Q8NI35 (Q8NI35 547-651): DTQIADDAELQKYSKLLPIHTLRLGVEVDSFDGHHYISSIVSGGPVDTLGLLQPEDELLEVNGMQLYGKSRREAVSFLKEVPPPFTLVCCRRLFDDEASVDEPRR
Sequence of GRIP2_3, Q9C0E4 (Q9C0E4 238-339): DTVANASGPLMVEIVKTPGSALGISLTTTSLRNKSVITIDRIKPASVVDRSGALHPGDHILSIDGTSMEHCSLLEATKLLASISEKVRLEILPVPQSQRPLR
Sequence of Inadl_8, Q8NI35 (Q8NI35 1425-1530): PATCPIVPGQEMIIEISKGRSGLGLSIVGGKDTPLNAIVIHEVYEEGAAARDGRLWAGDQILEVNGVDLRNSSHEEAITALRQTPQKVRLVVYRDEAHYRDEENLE
Sequence of LIMK2, P53671 (P53671 143-248): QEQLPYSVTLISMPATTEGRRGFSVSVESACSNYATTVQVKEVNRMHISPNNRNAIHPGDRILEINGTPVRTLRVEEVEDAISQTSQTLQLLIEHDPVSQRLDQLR
Sequence of DLG4_1, P78352 (P78352 62-152): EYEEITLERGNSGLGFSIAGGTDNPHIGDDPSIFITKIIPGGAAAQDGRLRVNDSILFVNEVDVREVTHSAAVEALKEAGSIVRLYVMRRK

pKd (NHERF4_2, Q86UT5; [1]): below the threshold
pKd (LIMK2, P53671; [1]): below the threshold
pKd (PDZD7_3, Q9H5P4; [1]): 4.9
pKd (GRIP2_6, Q9C0E4; [1]): below the threshold
pKd (NHERF3_3, Q5T2W1; [1]): below the threshold
pKd (LAP2, Q96RT1; [1]): below the threshold
pKd (LNX2_3, Q8N448; [1]): below the threshold
pKd (DLG4_1, P78352; [1]): below the threshold
pKd (DLG1_3, Q12959; [1]): below the threshold
pKd (CASK, O14936; [1]): below the threshold
pKd (APBA1_2, Q02410; [1]): below the threshold
pKd (GRIP2_3, Q9C0E4; [1]): below the threshold
pKd (DLG3_3, Q92796; [1]): below the threshold
pKd (LNX1_1, Q8TBB1; [1]): below the threshold
pKd (RHPN1, Q8TCX5; [1]): below the threshold
pKd (Inadl_4, Q8NI35; [1]): below the threshold
pKd (GOPC, Q9HD26; [1]): below the threshold
pKd (TJP3_3, O95049; [1]): below the threshold
pKd (LRRC7, Q96NW7; [1]): below the threshold
pKd (FRMPD2_3, Q68DX3; [1]): below the threshold
pKd (APBA3_1, O96018; [1]): below the threshold
pKd (SHANK1, Q9Y566; [1]): below the threshold
pKd (Inadl_8, Q8NI35; [1]): below the threshold
pKd (NHERF3_1, Q5T2W1; [1]): below the threshold
pKd (TJP2_1, Q9UDY2; [1]): below the threshold
pKd (FRMPD3, Q5JV73; [1]): below the threshold
pKd (NHERF2_2, Q15599; [1]): below the threshold
Binder: YGIVQETTFDLGGDIH [MLLT4_int, P55196]

pKd (NHERF4_2, Q86UT5; [2]): below the threshold
pKd (LIMK2, P53671; [2]): below the threshold
pKd (PDZD7_3, Q9H5P4; [2]): 3.61
pKd (GRIP2_6, Q9C0E4; [2]): below the threshold
pKd (NHERF3_3, Q5T2W1; [2]): below the threshold
pKd (LAP2, Q96RT1; [2]): below the threshold
pKd (LNX2_3, Q8N448; [2]): below the threshold
pKd (DLG4_1, P78352; [2]): below the threshold
pKd (DLG1_3, Q12959; [2]): 4.11
pKd (CASK, O14936; [2]): below the threshold
pKd (APBA1_2, Q02410; [2]): 3.33
pKd (GRIP2_3, Q9C0E4; [2]): below the threshold
pKd (DLG3_3, Q92796; [2]): below the threshold
pKd (LNX1_1, Q8TBB1; [2]): below the threshold
pKd (RHPN1, Q8TCX5; [2]): 3.97
pKd (Inadl_4, Q8NI35; [2]): below the threshold
pKd (GOPC, Q9HD26; [2]): 3.45
pKd (TJP3_3, O95049; [2]): below the threshold
pKd (LRRC7, Q96NW7; [2]): below the threshold
pKd (FRMPD2_3, Q68DX3; [2]): below the threshold
pKd (APBA3_1, O96018; [2]): below the threshold
pKd (SHANK1, Q9Y566; [2]): below the threshold
pKd (Inadl_8, Q8NI35; [2]): below the threshold
pKd (NHERF3_1, Q5T2W1; [2]): 4.22
pKd (TJP2_1, Q9UDY2; [2]): below the threshold
pKd (FRMPD3, Q5JV73; [2]): below the threshold
pKd (NHERF2_2, Q15599; [2]): 3.77
Binder: VDFPPKESSL [ACVR2A, P27037]

pKd (NHERF4_2, Q86UT5; [2]): below the threshold
pKd (LIMK2, P53671; [2]): below the threshold
pKd (PDZD7_3, Q9H5P4; [2]): 4.5
pKd (GRIP2_6, Q9C0E4; [2]): below the threshold
pKd (NHERF3_3, Q5T2W1; [2]): below the threshold
pKd (LAP2, Q96RT1; [2]): 3.73
pKd (LNX2_3, Q8N448; [2]): below the threshold
pKd (DLG4_1, P78352; [2]): below the threshold
pKd (DLG1_3, Q12959; [2]): 3.84
pKd (CASK, O14936; [2]): below the threshold
pKd (APBA1_2, Q02410; [2]): 3.97
pKd (GRIP2_3, Q9C0E4; [2]): below the threshold
pKd (DLG3_3, Q92796; [2]): below the threshold
pKd (LNX1_1, Q8TBB1; [2]): below the threshold
pKd (RHPN1, Q8TCX5; [2]): below the threshold
pKd (Inadl_4, Q8NI35; [2]): below the threshold
pKd (GOPC, Q9HD26; [2]): 4.03
pKd (TJP3_3, O95049; [2]): below the threshold
pKd (LRRC7, Q96NW7; [2]): below the threshold
pKd (FRMPD2_3, Q68DX3; [2]): below the threshold
pKd (APBA3_1, O96018; [2]): below the threshold
pKd (SHANK1, Q9Y566; [2]): below the threshold
pKd (Inadl_8, Q8NI35; [2]): below the threshold
pKd (NHERF3_1, Q5T2W1; [2]): 4.21
pKd (TJP2_1, Q9UDY2; [2]): below the threshold
pKd (FRMPD3, Q5JV73; [2]): below the threshold
pKd (NHERF2_2, Q15599; [2]): below the threshold
Binder: RPLPRKVSQL [DOCK4, Q8N1I0]

pKd (NHERF4_2, Q86UT5; [3]): below the threshold
pKd (LIMK2, P53671; [3]): below the threshold
pKd (PDZD7_3, Q9H5P4; [3]): below the threshold
pKd (GRIP2_6, Q9C0E4; [3]): below the threshold
pKd (NHERF3_3, Q5T2W1; [3]): below the threshold
pKd (LAP2, Q96RT1; [3]): below the threshold
pKd (LNX2_3, Q8N448; [3]): below the threshold
pKd (DLG4_1, P78352; [3]): below the threshold
pKd (DLG1_3, Q12959; [3]): below the threshold
pKd (CASK, O14936; [3]): below the threshold
pKd (APBA1_2, Q02410; [3]): below the threshold
pKd (GRIP2_3, Q9C0E4; [3]): below the threshold
pKd (DLG3_3, Q92796; [3]): below the threshold
pKd (LNX1_1, Q8TBB1; [3]): below the threshold
pKd (RHPN1, Q8TCX5; [3]): 4.44
pKd (Inadl_4, Q8NI35; [3]): below the threshold
pKd (GOPC, Q9HD26; [3]): below the threshold
pKd (TJP3_3, O95049; [3]): below the threshold
pKd (LRRC7, Q96NW7; [3]): below the threshold
pKd (FRMPD2_3, Q68DX3; [3]): below the threshold
pKd (APBA3_1, O96018; [3]): below the threshold
pKd (SHANK1, Q9Y566; [3]): 4.77
pKd (Inadl_8, Q8NI35; [3]): below the threshold
pKd (NHERF3_1, Q5T2W1; [3]): 4.34
pKd (TJP2_1, Q9UDY2; [3]): below the threshold
pKd (FRMPD3, Q5JV73; [3]): below the threshold
pKd (NHERF2_2, Q15599; [3]): 5
Binder: RAVEEEESRF [PSCDBP, O60759]

pKd (NHERF4_2, Q86UT5; [2]): below the threshold
pKd (LIMK2, P53671; [2]): below the threshold
pKd (PDZD7_3, Q9H5P4; [2]): below the threshold
pKd (GRIP2_6, Q9C0E4; [2]): below the threshold
pKd (NHERF3_3, Q5T2W1; [2]): below the threshold
pKd (LAP2, Q96RT1; [2]): 3.48
pKd (LNX2_3, Q8N448; [2]): below the threshold
pKd (DLG4_1, P78352; [2]): 3.51
pKd (DLG1_3, Q12959; [2]): below the threshold
pKd (CASK, O14936; [2]): below the threshold
pKd (APBA1_2, Q02410; [2]): below the threshold
pKd (GRIP2_3, Q9C0E4; [2]): below the threshold
pKd (DLG3_3, Q92796; [2]): below the threshold
pKd (LNX1_1, Q8TBB1; [2]): below the threshold
pKd (RHPN1, Q8TCX5; [2]): 4.29
pKd (Inadl_4, Q8NI35; [2]): below the threshold
pKd (GOPC, Q9HD26; [2]): below the threshold
pKd (TJP3_3, O95049; [2]): below the threshold
pKd (LRRC7, Q96NW7; [2]): below the threshold
pKd (FRMPD2_3, Q68DX3; [2]): below the threshold
pKd (APBA3_1, O96018; [2]): below the threshold
pKd (SHANK1, Q9Y566; [2]): below the threshold
pKd (Inadl_8, Q8NI35; [2]): below the threshold
pKd (NHERF3_1, Q5T2W1; [2]): below the threshold
pKd (TJP2_1, Q9UDY2; [2]): below the threshold
pKd (FRMPD3, Q5JV73; [2]): below the threshold
pKd (NHERF2_2, Q15599; [2]): below the threshold
Binder: FHPLGADSQV [SLC2A1, P11166]
